Consider one molecule from patent US20200148732A1 (UNIVERSITY OF COPENHAGEN, published 2020).

Where a chain is given by its changes, count along the chain named.

One assay deals with T1, GFP-TONSL E530A (Homo sapiens, UniProt Q96HA7 1-1378).
T1 construct: also called TONSL E530A / GFP; not shown: N-terminal GFP tag
T1 sequence: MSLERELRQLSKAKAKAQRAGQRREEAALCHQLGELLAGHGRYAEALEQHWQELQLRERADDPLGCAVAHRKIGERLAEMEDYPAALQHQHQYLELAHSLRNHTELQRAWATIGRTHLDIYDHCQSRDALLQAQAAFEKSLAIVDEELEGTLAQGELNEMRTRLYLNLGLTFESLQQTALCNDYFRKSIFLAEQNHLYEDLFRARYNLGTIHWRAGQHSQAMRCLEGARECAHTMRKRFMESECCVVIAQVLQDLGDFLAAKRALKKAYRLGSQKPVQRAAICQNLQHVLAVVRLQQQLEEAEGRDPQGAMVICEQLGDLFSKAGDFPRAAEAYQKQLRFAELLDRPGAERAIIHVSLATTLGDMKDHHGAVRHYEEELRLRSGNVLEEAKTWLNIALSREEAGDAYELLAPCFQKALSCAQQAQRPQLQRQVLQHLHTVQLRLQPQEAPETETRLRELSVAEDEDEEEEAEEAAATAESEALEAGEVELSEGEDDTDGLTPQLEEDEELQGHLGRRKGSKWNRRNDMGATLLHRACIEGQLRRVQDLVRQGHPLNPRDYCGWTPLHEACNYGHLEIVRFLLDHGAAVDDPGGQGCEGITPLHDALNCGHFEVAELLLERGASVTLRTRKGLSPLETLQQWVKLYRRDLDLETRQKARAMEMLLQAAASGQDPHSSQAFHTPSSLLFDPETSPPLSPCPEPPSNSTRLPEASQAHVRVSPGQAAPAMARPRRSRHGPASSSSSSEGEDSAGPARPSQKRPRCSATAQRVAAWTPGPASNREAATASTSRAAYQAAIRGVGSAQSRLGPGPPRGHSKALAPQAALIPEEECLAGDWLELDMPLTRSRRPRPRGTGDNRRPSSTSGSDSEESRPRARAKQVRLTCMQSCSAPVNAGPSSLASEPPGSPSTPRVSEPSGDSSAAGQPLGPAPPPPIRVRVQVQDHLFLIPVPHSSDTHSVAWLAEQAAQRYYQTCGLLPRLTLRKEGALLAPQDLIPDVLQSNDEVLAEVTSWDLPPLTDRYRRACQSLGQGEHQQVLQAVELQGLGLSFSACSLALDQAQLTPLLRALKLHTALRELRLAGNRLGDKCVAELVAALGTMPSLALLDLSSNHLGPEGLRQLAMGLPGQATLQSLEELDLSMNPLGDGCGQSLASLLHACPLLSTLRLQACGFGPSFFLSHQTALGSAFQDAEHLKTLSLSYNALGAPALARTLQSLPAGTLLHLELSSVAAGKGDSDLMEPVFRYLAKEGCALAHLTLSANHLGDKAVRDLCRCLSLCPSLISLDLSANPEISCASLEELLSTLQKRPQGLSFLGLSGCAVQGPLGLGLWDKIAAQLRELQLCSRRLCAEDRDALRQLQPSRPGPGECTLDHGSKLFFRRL
As to the kind of experiment: GFP immunoprecipitation of GFP-TONSL from transfected HeLa S3 cells, western blot (co-IP; association may be indirect). Background: In western blotting, separated proteins are transferred to a membrane and probed.

Another assay deals with T2, GFP-TONSL D604A (Homo sapiens, UniProt Q96HA7 1-1378).
T2 construct: also called TONSL D604A / GFP; not shown: N-terminal GFP tag
T2 sequence: T1 sequence with A530E, D604A
Described as above.

B1: MMS22L (endogenous, in cell extracts) (other, UniProt Q6ZRQ5 1-1243, looked up)
chain: MENCSAASTFLTDSLELELGTEWCKPPYFSCAVDNRGGGKHFSGESYLCSGALKRLILNLDPLPTNFEEDTLEIFGIQWVTETALVNSSRELFHLFRQQLYNLETLLQSSCDFGKVSTLHCKADNIRQQCVLFLHYVKVFIFRYLKVQNAESHVPVHPYEALEAQLPSVLIDELHGLLLYIGHLSELPSVNIGAFVNQNQIKLFPPSWHLLHLHLDIHWLVLEILYMLGEKLKQVVYGHQFMNLASDNLTNISLFEEHCETLLCDLISLSLNRYDKVRSSESLMSDQCPCLCIKELWVLLIHLLDHRSKWFVSESFWNWLNKLLKTLLEKSSDRRRSSMPVIQSRDPLGFSWWIITHVASFYKFDRHGVPDEMRKVESNWNFVEELLKKSISVQGVILEEQLRMYLHCCLTLCDFWEPNIAIVTILWEYYSKNLNSSFSISWLPFKGLANTMKSPLSMLEMVKTCCCDKQDQELYKSSSSYTIFLCILAKVVKKAMKSNGPHPWKQVKGRIYSKFHQKRMEELTEVGLQNFFSLFLLLAAVAEVEDVASHVLDLLNFLKPAFVTSQRALIWKGHMAFLLMYAQKNLDIGVLAEKFSCAFREKAKEFLVSKNEEMVQRQTIWTLLSIYIDGVQEVFETSYCLYPSHEKLLNDGFSMLLRACRESELRTVLSFLQAVLARIRSMHQQLCQELQRDNVDLFVQSSLSAKERHLAAVASALWRHFFSFLKSQRMSQVVPFSQLADAAADFTLLAMDMPSTAPSDFQPQPVISIIQLFGWDDIICPQVVARYLSHVLQNSTLCEALSHSGYVSFQALTVRSWIRCVLQMYIKNLSGPDDLLIDKNLEEAVEKEYMKQLVKLTRLLFNLSEVKSIFSKAQVEYLSISEDPKKALVRFFEAVGVTYGNVQTLSDKSAMVTKSLEYLGEVLKYIKPYLGKKVFSAGLQLTYGMMGILVKSWAQIFATSKAQKLLFRIIDCLLLPHAVLQQEKELPAPMLSAIQKSLPLYLQGMCIVCCQSQNPNAYLNQLLGNVIEQYIGRFLPASPYVSDLGQHPVLLALRNTATIPPISSLKKCIVQVIRKSYLEYKGSSPPPRLASILAFILQLFKETNTDIYEVELLLPGILKCLVLVSEPQVKRLATENLQYMVKACQVGSEEEPSSQLTSVFRQFIQDYGMRYYYQVYSILETVATLDQQVVIHLISTLTQSLKDSEQKWGLGRNIAQREAYSKLLSHLGQMGQDEMQRLENDNT
As for B1, the binding result with GFP-TONSL E530A and with GFP-TONSL D604A was “binds” throughout.
